# Read-outs that look alike come from different tables or passages of the source.
# Key:
# [1] = tested on: UFM1, UFC1; conditions: cited from earlier work
# From the text: The role of this region is not understood, and no interacting proteins could be identified so far. […] Ufmylation is essential for embryonic development. The A371T mutation was described previously to be present in patients suffering from severe infantile-onset encephalopathy. […] Our ITC experiments with C-terminal UBA5 peptides containing the A371T or its phosphomimicking A371E mutations (loca ...
# [2] = target: T1, UFC1 (Homo sapiens, UniProt Q9Y3C8); assay: ITC, UBA5 constructs vs UFC1; assay type: binding; conditions: for N: ITC stoichiometry; for N / ΔG / ΔS / −T*ΔS / KA*10^−6 / Kd: UFC1 titrated to full length UBA5; for N / ΔH / KA*10^−6: ± = fitting error; for ΔG / ΔS / −T*ΔS / ΔH / KA*10^−6 / Kd: ITC, 25 °C; for ΔH: UFC1 titrated to full length UBA5 (FL^1–404 or FL^1–404 C250K~UFM1), single profile; for ΔH / Kd: 25 mM HEPES pH 7.5, 100 mM NaCl; for KA*10^−6: value is KA × 10^−6; for Kd: VP-ITC, one-site model, single ITC profile
# T1 construct: Full length UFC1, residues 1–167; modified ubiquitin tag (Ub19) with TEV site (N, cleaved yes); made in house; host or cells: E. coli T7 Express
# T1 sequence (Q9Y3C8 1-167): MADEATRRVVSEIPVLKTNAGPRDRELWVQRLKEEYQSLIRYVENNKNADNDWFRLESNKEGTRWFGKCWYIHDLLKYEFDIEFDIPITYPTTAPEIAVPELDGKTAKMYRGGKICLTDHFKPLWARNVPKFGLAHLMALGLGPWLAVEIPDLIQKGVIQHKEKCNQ
# From the text: To understand how the UBA5 C-terminus participates in the ufmylation cascade, we performed isothermal titration calorimetry (ITC) experiments, in which we titrated UBA5 C-terminal peptides (see Table 1) to the UBA5 AD, UFC1, UFM1 and representative LC3/GABARAP proteins (Figure 2A, Supplementary Figure S2A–D and Table 2).
# To investigate if conjugation of UFM1 to the UBA5 catalytic cysteine (C250) affects the UFC1:UBA5 interactions, we prepared full length UBA5 C250K mutant and stably conjugated UFM1 to it as reported before for a number of ubiquitin-specific E2 enzymes. We compared the UFC1 spectra after addition of a twofold molar excess of FL^1–404 and FL^1–404 C250K~UFM1 constructs (Supplementary Figure S5C).
# All proteins and peptides were expressed in E.Coli T7 Express (New England Biolabs GmbH, Frankfurt, Germany) cells in LB or M9 (to obtain ^15N- and ^13C,^15N-labeled polypeptides) media according to the protocol described in [33, 36]. For protein purification, bacterial cell pellets were resuspended in lysis buffer (50 mM Tris-HCl pH = 7.5, 100 mM NaCl, 5% glycerol, 5 mM PIC (protease inhibitor cocktail)) and lysed via sonication (TT13 Sonotrode, 40% amplitude, for 6 × 1 min with a 0.5/0.5-s pulse). Lysates were centrifuged for 45 min at 17,000× g at 4 °C. Supernatants were loaded onto a His Trap Fast Flow 5 mL column (GE Healthcare, München, Germany) equilibrated in loading buffer (50 mM Tris-HCl pH = 8.0, 250 mM NaCl, 1% glycerol, 20 mM imidazole). The column was washed with loading buffer for 5–10 CV and protein was eluted with elution buffer (50 mM Tris-HCl pH = 8, 250 mM NaCl, 1% glycerol, 400 mM imidazole). Simultaneous TEV cleavage (1 mg TEV protease was added to 100 mg peptides/proteins) and buffer exchange to loading buffer via dialysis was performed over night at 4 °C. After reverse IMAC, proteins were concentrated with conical concentrators (Millipore Merck, Darmstadt, Germany) and loaded on a Superdex 10/60 75 or 200 column (GE Healthcare, München, Germany) for further purification and equilibration with ITC/NMR buffer (25 mM HEPES pH = 7.5, 100 mM NaCl). For structural NMR spectroscopy, buffer containing 50 mM Tris-HCl pH = 7.5, 100 mM NaCl was used. Prior to NMR experiments, TCEP and protease inhibitors cocktail were added to the samples to final concentrations 1 and 5 mM, respectively. Purified peptides and protein were concentrated and stored at −80 °C. The protein and peptide concentrations were calculated from the UV absorption at 280 nm by Nanodrop spectrophotometer (Thermo Scientific, Langenselbold, Germany).
# All ITC experiments were performed at 25 °C using a VP-ITC microcalorimeter (Malvern Panalytical Ltd., Malvern, UK). Peptides in concentration of ~400 µM were titrated into 20–25 µM solutions of corresponding binding partner at a stirring speed of 307 rpm. The raw data were corrected on the dilution heat of peptides obtained in independent experiment (titration of the peptide in syringe into the ITC/NMR buffer in the measuring cell). Pre-titration delay was set to 180 s, interval between titration steps was experimentally adjusted to avoid kinetic contribution to the observed heat effects and set to 200 s. A single ITC profile was collected for each type of interaction. The ITC data were analyzed based on a “one-site” binding model with MicroCal ITC software implemented in Origin 7.0.
# [3] = target: T1, UFC1; assay: NMR titration with UFC1; assay type: binding; conditions: [15N,1H] TROSY-HSQC, 25 °C
# Description: To understand the role of the UBA5 C-terminal region in coordination of the binding events reported above on the molecular level, we performed NMR titration experiments. […] It seems, that these UBA5 residues form additional interactions with UFC1.
# All NMR experiments were performed at a sample temperature of 25 °C on Bruker 600, 700, 800, 900, and 950 MHz spectrometers equipped with cryogenic probes, and a 500 MHz spectrometer equipped with a room-temperature triple-resonance probe. All NMR spectra were analyzed with the Sparky 3.114 software (University of California, San Francisco, USA). For NMR titration experiments, the non-labeled UBA5 peptides were titrated to 100 µM ^13C,^15N-labeled UFC1 to a final molar ratio of 1:8 (UFC1:UBA5 peptide). Conversely, 100 µM ^13C,^15N-labeled UBA5 peptides were titrated with non-labeled UFC1 to a final molar ratio 1:4 (UBA5 peptide:UFC1). 2D ^1H-^15N correlation spectra ([^15N,^1H] TROSY-HSQC) were recorded at each titration point. The same types of spectra were recorded to estimate binding of ^13C,^15N-labeled UFC1 (75 µM) to non-labeled UBA5, UBA5~UFM1 and UFM1 at 1:2 molar ratios. CSP values, Δδ, were calculated for each individual amide group using the formula Δδ = [(ΔδN/5)^2 + Δδ^2HN)]^1/2.
# [4] = target: T1, UFC1; assay: In vitro thioester formation (ufmylation) assay, UFC1~UFM1 conjugate; assay type: biochemical; conditions: within 30 min; 70 µM UFM1, 20 µM UFC1, 20 µM UBA5 construct, 1 mM ATP, 50 mM HEPES pH 7.5, 22 °C; Western blot; triplicates
# Description: First, we analyzed the effect of the UBA5 C-terminus on UFM1 transfer to UFC1 with an in vitro thioester formation assay (Figure 1B–E).
# Ufmylation reaction assays were adopted from work of Xie. Briefly, 70 µM UFM1, 20 µM UFC1 and 20 µM of different UBA5 constructs were mixed in reaction buffer (50 mM HEPES pH = 7.5, 100 mM NaCl, 5 mM MgCl2). After starting the reaction with addition of 1 mM ATP, the reaction mix was incubated at 22 °C for the desired time. To quench the reaction and prepare electrophoretic samples, 1 µL of the reaction mix was added to 99 µL 1x non-reducing SDS loading buffer and frozen in liquid nitrogen. Sample content was visualized by sodium dodecyl sulfate polyacrylamide gel electrophoresis (SDS-PAGE). The transfer to polyvinylidene difluoride (PVDF) membrane was performed via a Trans-Blot® Turbo™ Transfer System (Bio-Rad, München, Germany). After transfer the membrane was blocked with TBST (Tris-buffered saline with Tween20 buffer, 20 mM Tris, 150 mM NaCl and 0.1% TWEEN 20) containing 5% w/v nonfat dry milk for 1 h, followed by α-UFC1 antibody incubation over night at 4 °C (ab189251 abcam, 1:10,000 in TBST containing 5% w/v nonfat dry milk). After washing with TBST the membrane was incubated with secondary antibody (anti-rabbit-HRP) for 1 h at RT and again washed with TBST. Detection was performed by addition of ECL solution. For quantification of UFC1 ufmylation coloc2 software implemented in ImageJ was used.
# [5] = target: T2, UFM1 (Homo sapiens, UniProt P61960); assay: Gel filtration and electrophoresis of UBA5 C250K~UFM1 conjugates with excess UFM1; assay type: binding; conditions: gel filtration, Superdex 200 10/300, 4 times molar excess of UFM1, electrophoretic analysis
# T2 construct: Full length UFM1, residues 2–83; modified ubiquitin tag (Ub19) with TEV site (N, cleaved yes); made in house; host or cells: E. coli T7 Express
# T2 sequence (P61960 2-83): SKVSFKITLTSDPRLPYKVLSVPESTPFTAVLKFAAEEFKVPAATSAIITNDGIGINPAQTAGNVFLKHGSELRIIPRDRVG
# From the text: Figure 4 Interaction studies between full length UBA5 and UFC1 proteins. (A) Gel electrophoresis of ufmylation assays including UBA5 FL^1–404 (left plot) and UBA5 ΔR3^1–380. (B) UFC1 binding to full length UBA5 (left plot) and full length stable UBA5~UFM1 conjugate (right plot) observed by ITC experiments. […] KD values are indicated. (C) Gel-filtration profiles of the FL^1–404 C250K~UFM1 conjugates in presence of 4 times molar excess of UFM1 (red lines) and UFC1 (black lines). The peak subjected to electrophoretic analysis is indicated by an asterisk. (D) Scheme of reactions involving UBA5 in the ufmylation cascade. The structures of UBA5 AD (brown), UFM1 (cyan) and UFC1 (grey) are represented as ribbon diagrams; the UBA5 unstructured C-terminus containing regions R1 (orange), R2 (green) and R3 (violet) is shown as dashed lines. The structures were generated from PDB entry 5IAA [29]. * indicates regions of another UBA5 molecule involved in the in trans transfer of UFM1.
# For stable UBA5~UFM1 conjugation, 70 µM UFM1, 20 µM FL^1–404 C250K and 1 mM ATP were added to ufmylation reaction buffer (50 mM HEPES […], 100 mM NaCl, 5 mM MgCl2). For NMR analysis, resulting complexes were concentrated and equilibrated with ITC/NMR buffer. To analyze complex formation by ufmylation assay 300 µL of sample were loaded onto a Superdex 200 10/300 column (GE Healthcare, München, Germany).
N [2],ΔG [2],ΔS [2],−T*ΔS [2],ΔH [2],KA*10^−6 [2],Kd [2],UFC1 conjugated to UFM1 (UFC1~UFM1) [4],non-conjugated UFM1 in conjugate peak [5],Substance,effect of UBA5 A371T mutation on UFM1 activation / transfer [1],effect of UBA5 A371T mutation on UFM1 activation / transfer ([1]; listed as A371T mutation),interaction with UFC1 (in words) [3]
–,–,–,–,–,–,–,–,–,"UBA5 A371T mutant: A371T mutation in the human UBA5 protein, literature",slightly reduced UBA5 thioester conjugation with UFM1 and reduced enzymatic activity in trans-thioesterification of UFC1,"decreases the ability of UBA5 to activate UFM1, to transfer the activated UFM1 to UFC1 and to mediate UFBP1~UFM1 formation",–
0.97 ± 0.009,-8.00 kcal/mol,1.26 cal mol^−1 K^−1,-0.38 kcal/mol,-7.62 ± 0.01 kcal/mol,0.72 ± 0.04 M^−1,1400 nM,~ 90%,–,"FL^1–404: Full length UBA5, residues 1–404",–,–,did not observe significant CSPs (shift or disappearance of the UFC1 resonances) in comparison to the spectra of the UFC1:R3^381–404W complex
1.03 ± 0.009,-8.10 kcal/mol,−0.34 cal mol^−1 K^−1,0.10 kcal/mol,-8.21 ± 0.01 kcal/mol,0.87 ± 0.05 M^−1,1200 nM,–,contains non-conjugated UFM1,FL^1–404 C250K~UFM1: full length UBA5 C250K mutant with UFM1 stably conjugated to it,–,–,no significant enhancement of the UBA5:UFC1 interaction
